# Publication PMC11507936
# Experiments:
# [1] = molecular target: phosphorylated SARS-CoV-2 Nucleocapsid protein (pN) (SARS-CoV-2) (UniProt P0DTC9); experiment: […]
# [2] = molecular target: SARS-CoV-2 Nucleocapsid protein (N), unmodified (SARS-CoV-2) (UniProt P0DTC9); experiment: […]
substance,measurement,setting,value
6xHis-GFP-M^104–222 (C-terminal endodomain of the SARS-CoV-2 Membrane protein) (from UniProt P0DTC5 104-222) (domain or fragment),partition coefficient,[1],0.3
same,partition coefficient,[2],9.8
6xHis-GFP-Nsp3^1–111 (ubiquitin-like domain 1 of SARS-CoV-2 Nsp3) (domain or fragment),partition coefficient,[1],2.2
same,partition coefficient,[2],12.6
